We go through 4 molecules from patent US20090123934A1 (published 2009).

Assay [1] concerns the target wildtype PoloBD-fusion protein (Drosophila melanogaster) (UniProt P52304). The experiment in a line: yeast two-hybrid, serial dilutions.
For another assay, the target named is T1, HA-Polo (Drosophila melanogaster, UniProt P52304 1-576).
T1 construct: Expressed with baculovirus in Sf9 cells; also called Polo with a 2XHA tag at the N-terminus; not shown: N-terminal 2XHA tag
T1 sequence (looked up): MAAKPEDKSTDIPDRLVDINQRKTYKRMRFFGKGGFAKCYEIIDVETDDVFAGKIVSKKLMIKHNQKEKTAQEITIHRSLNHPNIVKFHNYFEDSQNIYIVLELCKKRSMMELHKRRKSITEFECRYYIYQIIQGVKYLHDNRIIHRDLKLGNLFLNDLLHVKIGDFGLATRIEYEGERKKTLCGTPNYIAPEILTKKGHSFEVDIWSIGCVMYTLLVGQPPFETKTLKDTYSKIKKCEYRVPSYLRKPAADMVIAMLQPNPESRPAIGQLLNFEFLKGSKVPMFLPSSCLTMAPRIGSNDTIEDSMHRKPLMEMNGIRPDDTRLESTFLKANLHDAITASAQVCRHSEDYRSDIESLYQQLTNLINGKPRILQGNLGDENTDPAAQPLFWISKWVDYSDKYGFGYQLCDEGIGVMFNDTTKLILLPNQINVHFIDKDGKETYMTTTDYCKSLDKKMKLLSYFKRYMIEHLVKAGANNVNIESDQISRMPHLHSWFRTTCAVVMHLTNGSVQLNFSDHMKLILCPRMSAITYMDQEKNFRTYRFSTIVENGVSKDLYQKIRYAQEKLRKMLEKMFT
Kind of assay: purified Flag-Mtrm incubated with HA-Polo, immunoprecipitated with anti-Mtrm antibody, anti-HA Western blot (FIG. 18). The protocol: Protein from affinity-purified Flag-Mtrm and HA-Polo was used for an in vitro binding experiment. 50 μg Flag-Mtrm was mixed with the same amount of HA-Polo in 60 μl of the above buffer and incubated for 1 hr at 30° C. As a control, 50 μg HA-Polo in 60 μl was also incubated. After incubation, both protein samples were immunoprecipitated using 50 μl protein A agarose beads coated with anti-Mtrm antibody (from guinea pig) for 1 hr at 4° C. The agarose beads were washed 6 times with the above protein buffer.
For Western blotting, the beads were suspended in 40 μl of SDS loading buffer (50 mM Tris-HCl (pH 6.8), 100 mM DTT, 2% SDS, 0.1% bromophenol blue, 10% glycerol) and heated for 3 min at 95° C. before being loaded on a PAGE gel. Western blotting for HA-Polo was conducted using anti-HA antibody from mouse and an Alkaline Phosphatase chromogen kit (BCIP/NBT) (Roche). (FIG. 18).
For orientation: In western blotting, separated proteins are transferred to a membrane and probed.

The target of assay [2] is T2, Polo kinase (Polo) (Drosophila melanogaster, UniProt P52304 1-576, T182 detected as phosphorylated (over 80%) in Polo bound to Mtrm).
T2 construct: Endogenous Polo in ovary extracts; also called polo (FBgn0003124)
T2 sequence (looked up): T1 sequence (looked up)
The experiment in a line: anti-FLAG affinity purification from ovarian extracts, MudPIT mass spectrometry, three replicates. From the text: We analyzed three independent affinity purifications from ovarian extracts expressing a C-terminally 3×FLAG-tagged Mtrm and used MudPIT mass spectrometry to identify interacting proteins. We then compared the identified proteins to those detected in five control FLAG immuno-precipitations from control (w¹¹¹⁸) flies.
In order to prepare a C-terminally 3×FLAG-tagged Mtrm for the MudPIT mass spectrometry assay, the UASP-mtrm-Flag (3×) construct was expressed in ovaries under the control of the nanos-GAL4 driver in a wild-type background. The extraction of protein from the ovaries was the same as described above. 100 μl of anti-FLAG beads were washed 2 times with pre-chilled 1×PBS and then 2 times with pre-chilled ovary extract buffer. The anti-FLAG beads were mixed with the extract supernatant, incubated and washed as described above. After washing, the beads bound with Mtrm-FLAG (3×) were finally transferred to a mini-column and washed with 25 ml of TBS (50 mM Tris-HCl, pH 7.4, 150 mM NaCl) at 4° C. When washing was completed, 300 μl TBS with 100 μg/ml 3×FLAG peptide was added to elute proteins. TCA was added to the eluted protein solution at a final concentration of 20%. The solution was mixed and kept on ice for at least 30 minutes. The solution was centrifuged at 14000 rpm at 4° C. for 15 minutes. […] The pellet was air dried and ready for the Mud PIT spectrometry analysis.

The target in assay [3] is T2, Polo kinase (Polo). The experiment in a line: co-immunoprecipitation, ovary extracts. The protocol:
To prepare the ovary extract for immunoprecipitation, ovaries from 100 yeast-fed female flies were dissected in 1×PBS. The ovaries were homogenized in an Eppendorf tube at 4° C. by a small pestle in 0.5 ml of ovary extract buffer containing 25 mM Hepes (pH 6.8), 50 mM KCl, 1 mM MgCl₂, 1 mM DTT and 125 mM sucrose with protease inhibitors cocktail (Calbiochem). The extract was centrifuged at 14000×g for 15 minutes at 4° C. and the supernatant was collected.
Protein A agarose beads were used for binding polyclonal antibodies from rabbit and guinea pig. Protein G agarose beads were used for binding monoclonal antibody from mouse. 50 ul of protein A or G-coated agarose was washed three times with PBST (PBS+0.1% Triton X-100). 10 ul of antibody was added to the beads in a final volume of 500 ul of PBS and mixed on a shaker for 1 hour at 4° C. The beads then were washed twice with PBST. The ovary extract was immunoprecipitated with the beads for 1 hour at 4° C. with continual shaking. After recovery by centrifugation at 1000×g for 3 minutes, the beads were washed 4 times with the cold ovary extract buffer with protease inhibitors, for 5 minutes each. For Western blotting, the beads were suspended in 30 μl of SDS loading buffer (50 mM Tris-HCl (pH 6.8), 100 mM DTT, 2% SDS, 0.1% bromophenol blue, 10% glycerol) and heated for 3 minutes at 95° C. before being loaded on a PAGE gel. […]

Numbering of substitutions follows the chain as printed.

In assay [1], “MtrmT(40)A mutant MtrmAD-fusion protein (from UniProt Q23973 1-217)” returned a colonies at the third serial dilution of 1 colonies and a colonies following the first serial dilution of 7 colonies.

B1: Flag-Mtrm (other)
chain: MENSRTPTNKTKITLNRTPTLKERRWNTLKVNTSNVRCSTPIFGNFRSPNLSPIENMGTKGKSPVSPMRFATFKKVPTKVHPKQQQQQQHQHCHRTQLKPPPFVLPKPQEEIIEPEREIKSCSSPDTCSDDSNMETSLALESRRRSIKASNHSYVVNHAANVEQILMHMGLENYVTNFEEAHIDLVELASLERADLVKIGLNTDEDCNRIMDVLHTL
notes: Expressed with baculovirus in Sf9 cells; also called Mtrm with a Flag tag at the N-terminus; not shown: N-terminal Flag tag
Consider B1, for which the binding result with HA-Polo is given as “binds”.

B2: C-terminally 3×FLAG-tagged Mtrm (other)
chain: B1 chain
modifications: phosphorylation detected on T40, S124 (less reproducibly), S48, S52 and S137
notes: Expressed in ovaries under nanos-GAL4 in a wild-type background; purified on anti-FLAG beads for MudPIT; also called Mtrm-Flag(3×); Mtrm-FLAG (3×); not shown: C-terminal 3×FLAG tag
In the case of B2, the “ratio between the two proteins (NSAF)” value with Polo kinase (Polo) [2] is 0.96 ratio of NSAF values.

B3: Mtrm with both PBD binding sites mutated (T(40)A and S(124)A) (other)
chain: B1 chain with T40A, S124A
With B3, in the assay with Polo kinase (Polo) [3], the binding result was “no binding”.
